According to paper PMC2877398 (Structure (London, England : 1993), 2010):
“And” between values parts separate entries of the source, which are not always exact repeats. Equal entries are not always repeated.

Tests used:
[1] = biological target: T1, S. cerevisiae RNA guanylyltransferase Ceg1 (1–459), full length (S. cerevisiae, UniProt Q01159 1-459); test: SEC
T1 sequence (looked up): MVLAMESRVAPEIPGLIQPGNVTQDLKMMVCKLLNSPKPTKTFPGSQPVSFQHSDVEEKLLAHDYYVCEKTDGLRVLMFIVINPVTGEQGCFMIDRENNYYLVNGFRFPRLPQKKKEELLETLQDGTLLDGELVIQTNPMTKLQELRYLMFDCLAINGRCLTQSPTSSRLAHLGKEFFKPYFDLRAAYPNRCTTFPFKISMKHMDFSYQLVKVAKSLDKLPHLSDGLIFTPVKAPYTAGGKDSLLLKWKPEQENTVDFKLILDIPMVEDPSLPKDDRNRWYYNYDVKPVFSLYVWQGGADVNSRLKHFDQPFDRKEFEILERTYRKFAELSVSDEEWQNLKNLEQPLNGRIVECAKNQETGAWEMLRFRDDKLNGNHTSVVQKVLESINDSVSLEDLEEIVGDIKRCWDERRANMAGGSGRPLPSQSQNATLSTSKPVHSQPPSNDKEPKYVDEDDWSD

crystal structure = biological target: the molecule itself; test: crystal structure

B1: S. cerevisiae RNA triphosphatase Cet1 (241–549) (domain or fragment, UniProt O13297 241-549, looked up)
chain: YRNVPIWAQKWKPTIKALQSINVKDLKIDPSFLNIIPDDDLTKSVQDWVYATIYSIAPELRSFIELEMKFGVIIDAKGPDRVNPPVSSQCVFTELDAHLTPNIDASLFKELSKYIRGISEVTENTGKFSIIESQTRDSVYRVGLSTQRPRFLRMSTDIKTGRVGQFIEKRHVAQLLLYSPKDSYDVKISLNLELPVPDNDPPEKYKSQSPISERTKDRVSYIHNDSCTRIDITKVENHNQNSKSRQSETTHEVELEINTPALLNAFDNITNDSKEYASLIRTFLNNGTIIRRKLSSLSYEIFEGSKKVM
Question: Which “stoichiometry N” value [1] does the source give for B1 here?
Answer: The value was 2 Cet1 protomers per Ceg1 (2:1) and 1 Cet1 protomers per Ceg1 (2:2).

Question: What about the “stoichiometry N” value (crystal structure) of the same binder?
Answer: Its value is 2 protomers.
